Assay: yeast display, Sf9 membrane polyspecificity reagent, FACS + sequencing; frameworks hold sequencing errors
Summary of the method: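 Nanobodies came from a synthetic yeast display library in Saccharomyces cerevisiae BJ5465, induced with galactose for 36–48 hours and stained for 1 hour at 4 °C with 10% biotinylated, detergent-solubilized Sf9 membrane reagent. Cells were enriched on streptavidin microbeads and then FACS-sorted, with low and high (top ~1%) gates set on anti-HA fluorescence for expression and streptavidin fluorescence for reagent binding. Each polyreactivity label reflects the gate a clone came from. Genes were amplified by colony PCR, sequenced by MiSeq 2 × 250 and filtered by CDR length.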

Row | Sequence | polyreactivity (PSR sort gate)
1 | QVQIVESGGGLVQAGGSLRISCAASGRTFRWYAMGWYRQAPGKERELVASITWSGGSTYYADSVKGRFTISRDNAKNSVYLQMNSLKPEDTAVYYCAAEKRYTYVGGPFNYWGQGIQVTVSS | high polyreactivity
2 | QVQLQEIGGGLVQAGRSLRLSCAASGSISRLDYMGWYRQASGKERELVAAIDNGSTTYYADSVKGRLTISRDNAKYTVYLQMNSLKPEDTAVYFCAAVRGRGGTHAYWGQGTQVTVSG | low polyreactivity
3 | QVQLVESGGGLVQAGGSLRLSCAASGRIFYFNTMGWYRQAPGKERELVAAISRSGTSTYYADSVKGRFTISRDNAKNTVYLQMNSLKPEDTAVYYCAAVKSYYKLDYWGQGTQVTVSS | high polyreactivity
4 | QVQLVEAGGGLVQAGGSLRLSCAASGYTFGPNAMGWYRQAPGKEREFVAAISWSGTSTYYADYVKGRFTISRDNAKNTDYLQMNSLKPEDTAVYYCAARSYRYVSRREYWGQGTLVTVSS | high polyreactivity
5 | QVQLVESGGGLVQAGGSLRLSCAASGSIFTLYAMGWNRQAPGQERELVAAITRSGGSTYYADSVKGRFTSSRDNAKNTVYLQMNSLKPEDTAVYYCAADKAPYSTEGDYWGQGTQVTVSS | high polyreactivity
6 | QVQLVESGGGLVQAGGSLRLSCAASGSIFPVYTMGWYRQAPWKERELVAAITKTGGSTYYADSVKGRFTISRDNAKNTVYLQMNILIPEDTAVYYCAKPATYYELDYWGQGTQVNVSS | low polyreactivity
7 | QVQLVESGGGLVQAGGSLRLSCAASGSTFDSYAMGWYRQAPGKERELVAAITTTGGSTFYADSVKGRFTISRDNAKNTVYLQMNSLKPEDTAVYYCAADDGWQEFEYWGQGTQVTVSS | low polyreactivity
8 | QVQLVESGGGLVQAGGSLRLSCAASGITFPLYAMGWYRQAPGKERELVAAISRRGGRTYADSVKGRFTISRDNAKNTVYLQMNSLKPEDTAVYYCAAKGYSYSRDFYSWGQGTQVTVSS | high polyreactivity
9 | QVQLVESGGGLVQAGGSLRLSCAASGRIFDWYAMGWYRQAPGKERELVAAISTSGANTYYADSVKGRITISRDNAKNTVYLQMNSLKPEDSGVYYCATDPYQPYEGDYWGQGTQVTVSS | low polyreactivity
10 | QVQLVESGGGLVQAGGSLRISCAASGFTFVYNTMGWYRQAPGKERELVAAITSRGGSTYYADSVKGRFTISRDNAKNTVYLQMYSLKPEDTAVYYCAAKISVRTSGTRYYYWGQGTQVTVSS | high polyreactivity
11 | QVQLVESGGGLVQAGGSLRLTCAASGSIFDFYAMGRYRQAPGQERELVAAISGSGGSTYYADSVKGRFTISRDNGKNTVYFQMDSLKPEDTAVYYCSYYYWGQGTQVNVSS | low polyreactivity
12 | QVQHVESVGGLVQARGSLRLSCAASGSIFDLYAMGWYRQAPGKERELVAGISYSGGSTYYADSVKGRFTISRDNAKNTVYLQMNSLKPEETAVYYCATAYYYHGGYYYPYDDYWGQGTQVTVSS | low polyreactivity
13 | QVQLVESGGGLVQAGGSLRLSCAPSGRIFRYYAMGWYRQAPGKERELVATIRSGGSTNYADSVKGRFTISRDNEKNTVYLQMNSLKPEDTAVYYCAATGGILSTYDYWGQVTQVTVSS | high polyreactivity
14 | QVQLVETGGGLVQAGGILRLSCAASGLIFTGNVMGWYRQAPGKESELVAAISRSGGRTYYADSVKGRFTISRDNAKNTVYLQMNSLKPEDTAVYYCNKVSPERVYYGSYFRYYYWGQGTQVTVSS | high polyreactivity
15 | QVQLVESGGGLVQAGGSLRLSCAASGSIFPIYAWGWYRQAPGKERELVAAISGSGARTYYSDSVKGRFTISRDNAKNTVYLQMNSLKPEDTAVYYCNAKYGYDSEARIVKPVRYDYWGQGTQVTVSS | high polyreactivity
16 | QVQLVESGGGLVQAGGSLRLSCAASGSTFTLYVMGWYRQAPGKERELVAAISSNGGRTYYADSVKGRFTISRDNAKNTVYLQMNSLKPEDTAVYYCAAGKIGRYHYDYWGQGTQVTVSS | high polyreactivity
17 | QVKLEESGGGLVQEGGSLRISCAASVRIFGNYSMGWSRQAPGKEMELVAAIDLSGDSTYYADSVKGRFTISRDNAKNTVYLQMNSLKPEDTAVYYCAATDWFSEYYWGQATQVTVSS | low polyreactivity
18 | QVQLVESGGGLVQAGGSLRLSCAASGRIFHLYAMGWYRQAPGKERELVATINYEGGSTYYADSVKGRFTISRDNAKDTVYLQMNSLKPEDTAVYYCAADGYQDKYYWLETWVGYWGQGTQVTVSS | low polyreactivity
19 | QVQLVESGGGLVQAGGSLRLSCAASGSTFTGYALGWYRQAPGKEREFVATITKRGGRTYYADSVKGRFTISRDNAKNTVYLQMHSLKPEDTAVYYCARDQGKLVVPYDYWGQGTQVTVSS | high polyreactivity
20 | QVQLVESAGGLVLAGGSLRLSCAASGYTVVRYAMGWYRQEPGKERELVAAISRSGGSTYYADSVKGRFTISRDNANNTVYLQMNSLNPEDTAVYYCNAYPYSYYDYDYWGQGTQVTVSS | high polyreactivity
21 | QVQLVESGGGLVQAGGSLRLSCAASGSIFDAYAMGWYRQAPGKERELVAAISLSDTSTYYADSVKGRFTISRDNAKNTVYLQMNSLKPEDTAVYYCAAEFYIAYIEYDYWGQGTQVTVSS | high polyreactivity
22 | QVQLVESGGGLVQAGGSLRLSCAASGSTFIPYAMGWYRQAPGKERELVAAIRGGDGSTYYADSVKGRFTISRDNAKNTVYLQMNSLKPEDTAVYYCAADTVITAYFYRFWRYNYWGQGTQVTVSS | low polyreactivity

Row | Sequence | polyreactivity (PSR sort gate)
23 | QVQLVESGGALFQAGGSLRLSCAASGIIFGVYAMGWYRQAPVKERELVASITWGGGSTYYADSVKGRFTISRDNAKNTVYLQMNSLKPEDTAVYYCNKRGYPGYDWGQGTQVTVSS | low polyreactivity
24 | QDQLVESGGGLVQAGGSLRLSCAASGSTFGFNAMGWDRQAPGKERELVAAITWSGGSTYYADSVKGRFTISRDNAKNTVYLQMNSLKPEDTAVYYCARETYGDYVHYDYWGQGTQVTLSS | low polyreactivity
25 | QVQLVESGGGLVQAGGSLRLSCAASGRIFYTNGMGWYRQAPGKERELVAAITYSGGNTFYADSVKGRFTISRDNSKNTVYLQMNSLKPEDTAVYYCAATFTYLGYWYDYRGQGTQVTVSS | low polyreactivity
26 | QVQLVERGGGLVQAGGSLRLSCAASGRIFYVNTMGCYRQAPGKERELVATISSAASTNYADSVKGRFTISRDHAKNTVYLQMNSLKPEETAVYYCNAALYKEYYYWGQGTQVTVSS | low polyreactivity
27 | QVQLVESGGGLVQAGGSLRLSCAASGYTFESYTMGWYRQAPGKEREFVAVISSSDTSTSYADSVKGRFTISRDNAKNTVYLQMNSLKPEDTAVYYCAAYSSPYYITYYWYNYDYWGQGTQVTVSS | low polyreactivity
28 | QVQLVDSGGGLVQAGGSLRLSCAASGSIFNVYAMGWYRQAPGKERELVAAITGSGGRTYYADSVKGRFTISRDNAKNTVYLQMNSLKPEDTAVYYCAATTRPGYRYEGDYWGQGTQVTVSS | low polyreactivity
29 | QVQLVESGGGLVQAGGSLRLSCAASGNTFYYNAMGWYRQAPGKEREFVAAITSSGGGTYYADSVKGRFTISRDNAKNTVYLQMNSLKPEDTAVYYCAADATYRKQVIFYYWGQGTQVTVSS | low polyreactivity
30 | QVQLVESGGGLVQAGGSLRLSCAASGRIFVFNAMGWYRQAPGKERELVAAITWSGGTTYYADSVKGRFTISRDNAKNTVYLQMNSLKPEDTAVYFCNAYLNRRMGYWGQGTQVTVSS | high polyreactivity
31 | QVQLVESGGGLVQAGGSLRLSCAASGFTFPNNAMGWYRQAPGKERELVAAITWSGGSTYADSVKGRFTISRDNAKNTVYLQMNSLKPEDTAVYYCNTRGTYLSKTLPSAYDYWGQGTQVTVSS | low polyreactivity
32 | QVQLVESGGVLVQAGGSLRLSCAASGSTFEDYTMGWYRQAPRKVRELVAISTRGGTYYADSVKGRFTSSRDNPKNTVYLQRNSLKPEDTAVYYCNKRFGYYSWDQYSRDYWGQGTQVTVSS | low polyreactivity
33 | QVQLVESGGGLVQAGGSLRLSCAASGSTFYWYAMGWYRQAPGKEREFVAAISLGSGSTYYADSVKGRFTISRDNAKNTVYLQMNSLKPEDTAVYYCATVPWYIKVGQKRNDYWGQGTQVTVSS | high polyreactivity
34 | QVQLVETGVGLVQAGGSLRLSCAASGRTFTTYAMGWYRQAPGKERELVAAITGSGGSTYYADSVNGRFTISRDNAKNTVYLQMNSLKPEDTAVYDCAKGYHQYAGFYYWGQGTQVTVSS | high polyreactivity
35 | QDQLVESGGGLVQAGGSLRLSCAASGRILLDNAMGWYRQAPGKERELVAAISSGGRTYYADSVKGRFTISRDNAKNTVYLQLNSLKPEDTAVYYCAVSGGFYWGQGTQVTVSS | high polyreactivity
36 | QDQLVESGGGLVQAGGSLRLSCAASGRIFYTNGMGWYRQAPGKERELVAAITYSGGNTFYADSVKGRFTISRDNAKNTVYLQMNSLKPEDTAVYYCAATFTYLGYWYDYWGQGTQVTVSS | low polyreactivity
37 | QVQLVESGGGLVLAGGSLRLSCAASGLTFEYNAMGWYRQAPGKEGELVASISSGGGTNYADSVKGRFTISRDNAKHTVYLQMNSLKPEDTAVYYCATDNYDWSSWAFRGYWYDYWGQGTQVTVSS | low polyreactivity
38 | QVQLVESGGGLVQAGGSLRLRCASSGRIFFGYAMGWYRQAPGKERELVASISRGGSTNYADSVKGRFTISRDNAKNTVYLQMHSLKPEDTAVYYCAASRYLQRYGMYYWGQGTQVTVSS | high polyreactivity
39 | QVQLEESGGGLVQAGGSLRLSCAASGRIFSGNAKGWYRQAPGKERELVANITSSSNTNYADSVKGRFTISRDNAKNTVYLQMNSLKPEDTAVYYCAKSAHNGYSFYGYDYWGQGTQVTVSS | low polyreactivity
40 | QVQHVESGGGLVQAGGSLRLSCAASGSTYGYYAMGWYRQAPGKERELVAAITSGGTTNYADSVKGRFTISRDNAKNTVYLQMNSLKPEDTAVYYCNAVGTFVRFWTDGRDGVTYDYWGQGTKVTVSS | low polyreactivity
41 | QVQLVESGAGLVQAGGSLRLSCAASGRIFQYNAMGWYRQAPGKERELVAAISYSTTRTYYAESVKSRFTISRDNAKITVYLQMKSLKPEVSGVYYCAARGYFWSSYKYDYWGLGTQVTVSS | high polyreactivity
42 | QVQHVESGGGLVQAGGSLRLSCAASGSTFSKYAMGWYRLAPGKERELVAAINYGGTSTYYADSVKGRFTISRDNAKNTVYLQMNSLKPEDTAVYYCAVIYRRLYTGGQNPYDYWGQGTQVTVSS | high polyreactivity
43 | QVQLVESGGGLVQAGGSLRLSCAASGSIFTYYTMGWYRPAPGKERELVAAIRWSAGRTYYADSVKGRFTISRDNAKNTVYLQMNSLKPEDTAVYYCAAAERLRHGLKFDYWGQGTQVTVSS | high polyreactivity
